Results from PMC2764403 (Biochemistry, 2009).

What was measured:
Assay in all cases: AUC
[1] = molecular target: human βA3-crystallin (human) (UniProt P05813)
[2] = molecular target: βB1ΔN47, tryptic product of murine βB1-crystallin (residues 1-47 removed) (murine)
[3] = molecular target: βB1ΔN56, murine βB1-crystallin with N-terminal residues 1-56 deleted (murine)
murine βB1-crystallin = molecular target: T1, murine βB1-crystallin (murine, UniProt Q9WVJ5 1-250)
T1 sequence (looked up): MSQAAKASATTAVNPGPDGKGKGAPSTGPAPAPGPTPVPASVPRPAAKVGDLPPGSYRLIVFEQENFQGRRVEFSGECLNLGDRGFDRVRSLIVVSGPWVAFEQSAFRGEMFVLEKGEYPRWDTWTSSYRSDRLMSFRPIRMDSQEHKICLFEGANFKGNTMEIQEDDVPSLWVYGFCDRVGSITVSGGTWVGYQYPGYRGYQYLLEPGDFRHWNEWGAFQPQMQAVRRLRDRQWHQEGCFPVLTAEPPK

AUC = molecular target: the molecule itself

For “βB1ΔN47, tryptic product of murine βB1-crystallin (residues 1-47 removed) (domain or fragment)”, the Kd [1] was 200 nM, the Kd [2] was 1400 nM and the stoichiometry N [2] was 2.

“βB1ΔN56, murine βB1-crystallin with N-terminal residues 1-56 deleted (domain or fragment)” was tested, and the stoichiometry N [3] was 4.

B1: βA3ΔN30, human βA3-crystallin with N-terminal residues 1-30 deleted and residue 31 replaced by glycine (domain or fragment, UniProt P05813-1 31-215, looked up)
chain: GKITIYDQENFQGKRMEFTSSCPNVSERSFDNVRSLKVESGAWIGYEHTSFCGQQFILERGEYPRWDAWSGSNAYHIERLMSFRPICSANHKESKMTIFEKENFIGRQWEISDDYPSLQAMGWFNNEVGSMKIQSGAWVCYQYPGYRGYQYILECDHHGGDYKHWREWGSHAQTSQIQSIRRIQQ
B1 was tested, and the Kd (murine βB1-crystallin) was 5000 nM, the Kd (AUC) was 100 nM and the “stoichiometry N” value (AUC) was 2.
